In IntAct's records for PubMed 21481780:

B1: Phosphotransferase RcsD (Escherichia coli (strain K12)), P39838 (parent)
chain: MRQKETTATTRFSLLPGSITRFFLLLIIVLLVTMGVMVQSAVNAWLKDKSYQIVDITHAIQKRVDNWRYVTWQIYDNIAATTSPSSGEGLQETRLKQDVYYLEKPRRKTEALIFGSHDNSTLEMTQRMSTYLDTLWGAENVPWSMYYLNGQDNSLVLISTLPLKDLTSGFKESTVSDIVDSRRAEMLQQANALDERESFSNMRRLAWQNGHYFTLRTTFNQPGHLATVVAFDLPINDLIPPGMPLDSFRLEPDATATGNNDNEKEGTDSVSIHFNSTKIEISSALNSTDMRLVWQVPYGTLLLDTLQNILLPLLLNIGLLALALFGYTTFRHFSSRSTENVPSTAVNNELRILRAINEEIVSLLPLGLLVHDQESNRTVISNKIADHLLPHLNLQNITTMAEQHQGIIQATINNELYEIRMFRSQVAPRTQIFIIRDQDREVLVNKKLKQAQRLYEKNQQGRMIFMKNIGDALKEPAQSLAESAAKLNAPESKQLANQADVLVRLVDEIQLANMLADDSWKSETVLFSVQDLIDEVVPSVLPAIKRKGLQLLINNHLKAHDMRRGDRDALRRILLLLMQYAVTSTQLGKITLEVDQDESSEDRLTFRILDTGEGVSIHEMDNLHFPFINQTQNDRYGKADPLAFWLSDQLARKLGGHLNIKTRDGLGTRYSVHIKMLAADPEVEEEEERLLDDVCVMVDVTSAEIRNIVTRQLENWGATCITPDERLISQDYDIFLTDNPSNLTASGLLLSDDESGVREIGPGQLCVNFNMSNAMQEAVLQLIEVQLAQEEVTESPLGGDENAQLHASGYYALFVDTVPDDVKRLYTEAATSDFAALAQTAHRLKGVFAMLNLVPGKQLCETLEHLIREKDVPGIEKYISDIDSYVKSLL
partner: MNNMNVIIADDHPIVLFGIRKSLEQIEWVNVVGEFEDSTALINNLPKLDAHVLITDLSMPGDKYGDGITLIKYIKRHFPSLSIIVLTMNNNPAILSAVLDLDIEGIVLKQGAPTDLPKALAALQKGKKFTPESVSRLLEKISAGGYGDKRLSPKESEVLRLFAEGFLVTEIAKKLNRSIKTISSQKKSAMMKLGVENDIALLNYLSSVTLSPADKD

Variants of: B1
Details: with rcsb_ecoli rcsB
With N715A;Q776A;L780A the “effect of a mutation on the interaction” value was “decreasing interaction”.
